± gives the uncertainty stated by the source.

The chains are these.
B1: Homeobox protein cut-like 1, residues 548 to 629; numbered along this chain, P39880 (parent)
chain: GEEMDTAEIARQVKEQLIKHNIGQRIFGHYVLGLSQGSVSEILARPKPWNKLTVRGKEPFHKMKQFLSDEQNILALRSIQGR

Variants of B1 are the subject of this data set. Briefly: abundance fitness (aPCA) (normalised: wild type 0, dead -1); higher = more abundant; growth selection in yeast, the domain comes from the species named. The note with it: Homo sapiens.
In the case of GEEMDTAEIARQVKEQLIKHNIGQRIFGHYVLGLSQGSVSEILARPKPWNKLTVRGKFPFHKMKQFLSDEQNILALRSIQGR [E58F], the abundance fitness was -0.416 ± 0.14.
Under GEEMDTAEIARQVKEQLIKHNIGQRIFGHYVLGLSQGSVSEILARPKPWNKLTVRGKPPFHKMKQFLSDEQNILALRSIQGR [E58P] stands -0.819 ± 0.087; under GEEMDTAEIARQVKEQLIKHNIGQRIFGHYVLGLSQGSVSEILARPKPWNKLTVRGKQPFHKMKQFLSDEQNILALRSIQGR [E58Q], -0.047 ± 0.034.
Under GEEMDTAEIARQVKEQLIKHNIGQRIFGHYVLGLSQGSVSEILARPKPWNKLTVRGKYPFHKMKQFLSDEQNILALRSIQGR [E58Y] stands -0.166 ± 0.075; under GEEMDTAEIARQVKEQLIKHNIGQRIFGHYVLGLSQGSVSEILARPKPWNKLTVRGKGPFHKMKQFLSDEQNILALRSIQGR [E58G], -0.35 ± 0.026; under GEEMDTAEIARQVKEQLIKHNIGQRIFGHYVLGLSQGSVSEILARPKPWNKLTVRGKNPFHKMKQFLSDEQNILALRSIQGR [E58N], -0.27 ± 0.071.
Under GEEMDTAEIARQVKEQLIKHNIGQRIFGHYVLGLSQGSVSEILARPKPWNKLTVRGKWPFHKMKQFLSDEQNILALRSIQGR [E58W] stands -0.227 ± 0.033; under GEEMDTAEIARQVKEQLIKHNIGQRIFGHYVLGLSQGSVSEILARPKPWNKLTVRGKCPFHKMKQFLSDEQNILALRSIQGR [E58C], -0.441 ± 0.065; under GEEMDTAEIARQVKEQLIKHNIGQRIFGHYVLGLSQGSVSEILARPKPWNKLTVRGKTPFHKMKQFLSDEQNILALRSIQGR [E58T], -0.255 ± 0.038.
With GEEMDTAEIARQVKEQLIKHNIGQRIFGHYVLGLSQGSVSEILARPKPWNKLTVRGKHPFHKMKQFLSDEQNILALRSIQGR [E58H], the abundance fitness was -0.618 ± 0.11.
Under GEEMDTAEIARQVKEQLIKHNIGQRIFGHYVLGLSQGSVSEILARPKPWNKLTVRGKRPFHKMKQFLSDEQNILALRSIQGR [E58R] stands -0.273 ± 0.026; under GEEMDTAEIARQVKEQLIKHNIGQRIFGHYVLGLSQGSVSEILARPKPWNKLTVRGKDPFHKMKQFLSDEQNILALRSIQGR [E58D], -0.105 ± 0.051; under GEEMDTAEIARQVKEQLIKHNIGQRIFGHYVLGLSQGSVSEILARPKPWNKLTVRGKSPFHKMKQFLSDEQNILALRSIQGR [E58S], -0.252 ± 0.035.
For GEEMDTAEIARQVKEQLIKHNIGQRIFGHYVLGLSQGSVSEILARPKPWNKLTVRGKIPFHKMKQFLSDEQNILALRSIQGR [E58I], the abundance fitness was -0.234 ± 0.085.
Under GEEMDTAEIARQVKEQLIKHNIGQRIFGHYVLGLSQGSVSEILARPKPWNKLTVRGKLPFHKMKQFLSDEQNILALRSIQGR [E58L] stands -0.121 ± 0.032; under GEEMDTAEIARQVKEQLIKHNIGQRIFGHYVLGLSQGSVSEILARPKPWNKLTVRGKKPFHKMKQFLSDEQNILALRSIQGR [E58K], -0.23 ± 0.037; under GEEMDTAEIARQVKEQLIKHNIGQRIFGHYVLGLSQGSVSEILARPKPWNKLTVRGKVPFHKMKQFLSDEQNILALRSIQGR [E58V], -0.062 ± 0.03.
As for GEEMDTAEIARQVKEQLIKHNIGQRIFGHYVLGLSQGSVSEILARPKPWNKLTVRGKAPFHKMKQFLSDEQNILALRSIQGR [E58A], the abundance fitness is -0.168 ± 0.03.
Under GEEMDTAEIARQVKEQLIKHNIGQRIFGHYVLGLSQGSVSEILARPKPWNKLTVRGKMPFHKMKQFLSDEQNILALRSIQGR [E58M] stands -0.132 ± 0.04; under GEEMDTAEIARQVKEQLIKHNIGQRIFGHYVLGLSQGSVSEILARPKPWNKLTVRQKEPFHKMKQFLSDEQNILALRSIQGR [G56Q], 0.077 ± 0.036.
Under GEEMDTAEIARQVKEQLIKHNIGQRIFGHYVLGLSQGSVSEILARPKPWNKLTVRYKEPFHKMKQFLSDEQNILALRSIQGR [G56Y] stands -0.313 ± 0.078; under GEEMDTAEIARQVKEQLIKHNIGQRIFGHYVLGLSQGSVSEILARPKPWNKLTVRRKEPFHKMKQFLSDEQNILALRSIQGR [G56R], -0.711 ± 0.033; under GEEMDTAEIARQVKEQLIKHNIGQRIFGHYVLGLSQGSVSEILARPKPWNKLTVRVKEPFHKMKQFLSDEQNILALRSIQGR [G56V], -0.343 ± 0.029.
Then GEEMDTAEIARQVKEQLIKHNIGQRIFGHYVLGLSQGSVSEILARPKPWNKLTVRWKEPFHKMKQFLSDEQNILALRSIQGR [G56W], with -0.265 ± 0.031.
With GEEMDTAEIARQVKEQLIKHNIGQRIFGHYVLGLSQGSVSEILARPKPWNKLTVRNKEPFHKMKQFLSDEQNILALRSIQGR [G56N], the abundance fitness was -0.22 ± 0.063.
Under GEEMDTAEIARQVKEQLIKHNIGQRIFGHYVLGLSQGSVSEILARPKPWNKLTVRTKEPFHKMKQFLSDEQNILALRSIQGR [G56T] stands -0.333 ± 0.042; under GEEMDTAEIARQVKEQLIKHNIGQRIFGHYVLGLSQGSVSEILARPKPWNKLTVRSKEPFHKMKQFLSDEQNILALRSIQGR [G56S], -0.254 ± 0.032; under GEEMDTAEIARQVKEQLIKHNIGQRIFGHYVLGLSQGSVSEILARPKPWNKLTVRPKEPFHKMKQFLSDEQNILALRSIQGR [G56P], -0.697 ± 0.069.
Then GEEMDTAEIARQVKEQLIKHNIGQRIFGHYVLGLSQGSVSEILARPKPWNKLTVRMKEPFHKMKQFLSDEQNILALRSIQGR [G56M], with -0.143 ± 0.039; and GEEMDTAEIARQVKEQLIKHNIGQRIFGHYVLGLSQGSVSEILARPKPWNKLTVRGKEPCHKMKQFLSDEQNILALRSIQGR [F60C], with -0.762 ± 0.26; and GEEMDTAEIARQVKEQLIKHNIGQRIFGHYVLGLSQGSVSEILARPKPWNKLTVRGKEPAHKMKQFLSDEQNILALRSIQGR [F60A], with -0.944 ± 0.064.
On to GEEMDTAEIARQVKEQLIKHNIGQRIFGHYVLGLSQGSVSEILARPKPWNKLTVRGAEPFHKMKQFLSDEQNILALRSIQGR [K57A], for which the abundance fitness is -0.2 ± 0.029.
Under GEEMDTAEIARQVKEQLIKHNIGQRIFGHYVLGLSQGSVSEILARPKPWNKLTVRGMEPFHKMKQFLSDEQNILALRSIQGR [K57M] stands -0.152 ± 0.041.

The record behind these values is the Human Domainome abundance scans (Beltran et al. 2025).
